Test [1] has as its target T1, FGF2 (UniProt P09038 143-288, limits assumed).
T1 construct: also called basic FGF; basic fibroblast growth factor
Nature of the test: ELISA: FGF2 captured on heparin-coated plate, detected with HRP-goat-anti-human-IgG-Fc. How it is done:
(§1) Heparin (50 μg/ml) was bound to ELISA plates overnight and used to capture either VEGF or FGF2 (0.2 μg/ml) overnight, followed by 2% BSA for blocking.

Test [2] deals with T2, VEGF (UniProt P15692-4 27-191, limits assumed).
T2 construct: also called vascular endothelial growth factor; VEGF-A
The experiment in a line: ELISA: VEGF captured on heparin-coated plate, detected with HRP-goat-anti-human-IgG-Fc. The procedure: as §1
(In general: In an ELISA, binding on a coated surface is turned into a signal by an enzyme label.)

The target in test [3] is T1, FGF2. Nature of the test: ELISA binding curves, FIG. 6B. How it is done:
as §1

Test [4] has as its target T2, VEGF. Nature of the test: bridging ELISA: VEGF captured on heparin-coated plate, antibody, then Flag-FGF2 and HRP-anti-Flag M2; signal needs binding to both VEGF and Flag-FGF2. The procedure:
(§2) Heparin (50 μg/ml) was bound to an ELISA plate overnight and used to capture VEGF (0.2 μg/ml) overnight, followed by 2% BSA for blocking. […] In principle, this assay should only detect bispecific antibody, because any detectable antibody must bind both to the VEGF on the plate in order to be captured and to Flag-FGF2 in solution in order to be detected.

In another test the target is T3, Flag-FGF2 (UniProt P09038 135-288, limits assumed).
T3 construct: Soluble detection reagent in the bridging ELISA; also called Flag peptide linked to FGF2; not shown: Flag peptide
Described as above. The procedure: as §2

T2 sequence (P15692 other isoform, or with tags, fused parts or gaps limits assumed): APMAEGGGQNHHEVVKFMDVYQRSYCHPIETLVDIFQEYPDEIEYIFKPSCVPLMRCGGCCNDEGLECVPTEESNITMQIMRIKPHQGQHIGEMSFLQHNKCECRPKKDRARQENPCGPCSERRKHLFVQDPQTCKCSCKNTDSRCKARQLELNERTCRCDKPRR
T1 sequence (P09038 143-288 limits assumed): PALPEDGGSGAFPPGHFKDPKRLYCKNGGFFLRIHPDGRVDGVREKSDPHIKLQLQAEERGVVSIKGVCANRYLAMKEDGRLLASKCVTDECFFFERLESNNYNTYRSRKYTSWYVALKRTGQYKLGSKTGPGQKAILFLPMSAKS
T3 sequence (P09038 135-288 limits assumed): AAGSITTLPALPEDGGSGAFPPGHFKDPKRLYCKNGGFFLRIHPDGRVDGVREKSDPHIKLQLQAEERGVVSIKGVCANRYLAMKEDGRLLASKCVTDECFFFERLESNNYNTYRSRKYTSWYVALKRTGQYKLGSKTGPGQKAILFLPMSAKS

B1: X-Ava/F2 (bispecific antibody, human IgG1, kappa)
light 1: DIQMTQSPSSLSASVGDRVTITCKASQSVSSDVGWYQQKPGKAPKLLIYSGSNRYSGVPSRFSGSGSGTDFTLTISSLQPEDFATYYCQQDYYSPWTFGQGTKVEIKRTVAAPSVFIFPPSDEQLKSGTASVVCLLNNFYPREAKVQWKVDNALQSGNSQESVTEQDSKDSTYSLSSTLTLSKADYEKHKVYACEVTHQGLSSPVTKSFNRGEC
heavy 1: not shown
light 2: DIQMTQSPSSLSASVGDRVTITCSASQDISNYLNWYQQKPGKAPKVLIYFTSSLHSGVPSRFSGSGSGTDFTLTISSLQPEDFATYYCQQYSTVPWTFGQGTKVEIKSSASTKGPSVFPLAPSSKSTSGGTAALGCLVKDYFPEPVTVSWNSGALTSGVHTFPAVLQSSGLYSLSSVVTVPSSSLGTQTYICNVNHKPSNTKVDKRVEPKSC
heavy 2: not shown
notes: also called bispecific antibody X-Ava/F2; X-Ava/F2 mAb
As to B1, the “fold difference of EC50 against HuGAL-F2” value with FGF2 [1] is no more than 4 fold. Also, the “fold difference of EC50 against Avastin®” value with VEGF [2] is no more than 2 fold.

B2: HuGAL-F2 (antibody, V domains shown)
VH: EVQLVQSGAEVKKPGSSVKVSCKASGYTFTNYVINWVRQAPGQGLEWIGYNDPYNDVSKYNEKFKGRATITSDKSTSTAYMELSSLRSEDTAVYYCAKEGGGKYVYAMDSWGQGTTVTVSS
VL: DIQMTQSPSSLSASVGDRVTITCKASQSVSSDVGWYQQKPGKAPKLLIYSGSNRYSGVPSRFSGSGSGTDFTLTISSLQPEDFATYYCQQDYYSPWTFGQGTKVEIK
notes: also called humanized GAL-F2
On to B2, for which the binding result with FGF2 [3] is recorded as “binds”; with VEGF [4], “no binding (tested: 1 µg/ml)”.

B3: Avastin® (bevacizumab) (antibody, V domains shown)
VH: EVQLVESGGGLVQPGGSLRLSCAASGYTFTNYGMNWVRQAPGKGLEWVGWINTYTGEPTYAADFKRRFTFSLDTSKSTAYLQMNSLRAEDTAVYYCAKYPHYYGSSHWYFDVWGQGTLVTVSS
VL: DIQMTQSPSSLSASVGDRVTITCSASQDISNYLNWYQQKPGKAPKVLIYFTSSLHSGVPSRFSGSGSGTDFTLTISSLQPEDFATYYCQQYSTVPWTFGQGTKVEIKR
notes: Humanized anti-VEGF mAb, bivalent; also called Fab-12; F(ab)-12
For B3, the binding result with Flag-FGF2 is listed as “no binding (tested: 1 µg/ml)”.

For the origin of these results see patent US20150110788A1 (GALAXY BIOTECH, published 2015).
